The source of these data is publication PMC12102759 (2025).

B1: SH3BP2 peptide 408-423 (SH3 domain-binding protein 2), 16-mer library wild type / TNKS ANK (TNKS 12 ANK repeats, residues 174-649) (parent complex)
chain 1: PQLPHLQRSPPDGQSF
chain 2: TGVPAVSGALRELLEACRNGDVSRVKRLVDAANVNAKDMAGRKSSPLHFAAGFGRKDVVEHLLQMGANVHARDDGGLIPLHNACSFGHAEVVSLLLCQGADPNARDNWNYTPLHEAAIKGKIDVCIVLLQHGADPNIRNTDGKSALDLADPSAKAVLTGEYKKDELLEAARSGNEEKLMALLTPLNVNCHASDGRKSTPLHLAAGYNRVRIVQLLLQHGADVHAKDKGGLVPLHNACSYGHYEVTELLLKHGACVNAMDLWQFTPLHEAASKNRVEVCSLLLSHGADPTLVNCHGKSAVDMAPTPELRERLTYEFKGHSLLQAAREADLAKVKKTLALEIINFKQPQSHETALHCAVASLHPKRKQVTELLLRKGANVNEKNKDFMTPLHVAAERAHNDVMEVLHKHGAKMNALDTLGQTALHRAALAGHLQTCRLLLSYGSDPSIISLQGFTAAQMGNEAVQQILSESTPIRTSD

The assay covers variants of B1. Put plainly: proteomic peptide phage display deep mutational scan (ProP-PD DMS): M13 P8 16-mer library selected against immobilised GST-tagged bait for four days (rounds), NGS of the eluted pools per day and pseudo-replica; bait immobilised on MaxiSorp plates (10 µg), library pre-cleared on GST, 2 h binding at 4 °C, five washes; one round per day, days 1-4; value from days 2 and 3.
Turning to chain 1 PDLPHLQRSPPDGQSF [chain 1 Q2D], the screen value is 0.00112 average fractional NGS count over selection days 2 and 3 (reads of this peptide / all reads for the bait, averaged over ….
For chain 1 PMLPHLQRSPPDGQSF [chain 1 Q2M], the screen value is 0.000169 average fractional NGS count over selection days 2 and 3 (reads of this peptide / all reads for the bait, averaged over ….
To chain 1 PELPHLQRSPPDGQSF [chain 1 Q2E] belongs 0.000696 average fractional NGS count over selection days 2 and 3 (reads of this peptide / all reads for the bait, averaged over …; to chain 1 PHLPHLQRSPPDGQSF [chain 1 Q2H], 0.000483 average fractional NGS count over selection days 2 and 3 (reads of this peptide / all reads for the bait, averaged over ….
For chain 1 PQLPHLQRSPPDGQYF [chain 1 S15Y], the screen value was 0.000762 average fractional NGS count over selection days 2 and 3 (reads of this peptide / all reads for the bait, averaged over ….
Regarding chain 1 PQLPHLQRSPPDGQPF [chain 1 S15P], the screen value was 0.000545 average fractional NGS count over selection days 2 and 3 (reads of this peptide / all reads for the bait, averaged over ….
As for chain 1 PQLPHLQRSPPDGQTF [chain 1 S15T], the screen value was 0.000479 average fractional NGS count over selection days 2 and 3 (reads of this peptide / all reads for the bait, averaged over ….
To chain 1 PQLPHLQRSPPDGQAF [chain 1 S15A] belongs 0.00154 average fractional NGS count over selection days 2 and 3 (reads of this peptide / all reads for the bait, averaged over …; to chain 1 PQLPHLQRSPPDGQQF [chain 1 S15Q], 0.000297 average fractional NGS count over selection days 2 and 3 (reads of this peptide / all reads for the bait, averaged over …; to chain 1 PQLPHLQRSPPDGQWF [chain 1 S15W], 0.000372 average fractional NGS count over selection days 2 and 3 (reads of this peptide / all reads for the bait, averaged over ….
To chain 1 PQLPHLQRSPPDGQRF [chain 1 S15R] belongs 0.000309 average fractional NGS count over selection days 2 and 3 (reads of this peptide / all reads for the bait, averaged over ….
chain 1 PQLPHLQRPPPDGQSF [chain 1 S9P]: the screen value was 0.000122 average fractional NGS count over selection days 2 and 3 (reads of this peptide / all reads for the bait, averaged over ….
For the variant chain 1 PQLPHLQRMPPDGQSF [chain 1 S9M], the screen value is 0.00474 average fractional NGS count over selection days 2 and 3 (reads of this peptide / all reads for the bait, averaged over ….
For the variant chain 1 PQLPHLQRLPPDGQSF [chain 1 S9L], the screen value is 0.00406 average fractional NGS count over selection days 2 and 3 (reads of this peptide / all reads for the bait, averaged over ….
To chain 1 PQLPHLQRWPPDGQSF [chain 1 S9W] belongs 0.000206 average fractional NGS count over selection days 2 and 3 (reads of this peptide / all reads for the bait, averaged over …; to chain 1 PQLPHLQRNPPDGQSF [chain 1 S9N], 0.000282 average fractional NGS count over selection days 2 and 3 (reads of this peptide / all reads for the bait, averaged over ….
Regarding chain 1 PQLPHLMRSPPDGQSF [chain 1 Q7M], the screen value was 0.00158 average fractional NGS count over selection days 2 and 3 (reads of this peptide / all reads for the bait, averaged over ….
For the variant chain 1 PQLPHLFRSPPDGQSF [chain 1 Q7F], the screen value was 0.00823 average fractional NGS count over selection days 2 and 3 (reads of this peptide / all reads for the bait, averaged over ….
In the case of chain 1 PQLPHLHRSPPDGQSF [chain 1 Q7H], the screen value was 0.00147 average fractional NGS count over selection days 2 and 3 (reads of this peptide / all reads for the bait, averaged over ….
For the variant chain 1 PQLPHLLRSPPDGQSF [chain 1 Q7L], the screen value is 0.00476 average fractional NGS count over selection days 2 and 3 (reads of this peptide / all reads for the bait, averaged over ….
With chain 1 PQLPHLTRSPPDGQSF [chain 1 Q7T], the screen value is 0.000465 average fractional NGS count over selection days 2 and 3 (reads of this peptide / all reads for the bait, averaged over ….
As to chain 1 PQLPHLYRSPPDGQSF [chain 1 Q7Y], the screen value was 0.00125 average fractional NGS count over selection days 2 and 3 (reads of this peptide / all reads for the bait, averaged over ….
Turning to chain 1 PQLPHLKRSPPDGQSF [chain 1 Q7K], the screen value is 0.000537 average fractional NGS count over selection days 2 and 3 (reads of this peptide / all reads for the bait, averaged over ….
Regarding chain 1 PQLPHLDRSPPDGQSF [chain 1 Q7D], the screen value was 0.00248 average fractional NGS count over selection days 2 and 3 (reads of this peptide / all reads for the bait, averaged over ….
For chain 1 PQLPHLVRSPPDGQSF [chain 1 Q7V], the screen value was 0.00169 average fractional NGS count over selection days 2 and 3 (reads of this peptide / all reads for the bait, averaged over ….
Consider chain 1 PQLPHLQRSPPDGTSF [chain 1 Q14T], for which the screen value is 0.00291 average fractional NGS count over selection days 2 and 3 (reads of this peptide / all reads for the bait, averaged over ….
Consider chain 1 PQLPHLQRSPPDGYSF [chain 1 Q14Y], for which the screen value is 0.000878 average fractional NGS count over selection days 2 and 3 (reads of this peptide / all reads for the bait, averaged over ….
Regarding chain 1 PQLPHLQRSPPDGGSF [chain 1 Q14G], the screen value is 0.000379 average fractional NGS count over selection days 2 and 3 (reads of this peptide / all reads for the bait, averaged over ….
The value for chain 1 PQLPHLQRSPPDGRSF [chain 1 Q14R] was 0.000901 average fractional NGS count over selection days 2 and 3 (reads of this peptide / all reads for the bait, averaged over ….
Regarding chain 1 PQLPHLQRSPPDGLSF [chain 1 Q14L], the screen value was 0.000462 average fractional NGS count over selection days 2 and 3 (reads of this peptide / all reads for the bait, averaged over ….
For the variant chain 1 PQLPHLQRSPPDGFSF [chain 1 Q14F], the screen value is 0.000219 average fractional NGS count over selection days 2 and 3 (reads of this peptide / all reads for the bait, averaged over ….
With chain 1 PQLPHLQRSGPDGQSF [chain 1 P10G], the screen value was 0.00637 average fractional NGS count over selection days 2 and 3 (reads of this peptide / all reads for the bait, averaged over ….
To chain 1 PQLPHLQRSVPDGQSF [chain 1 P10V] belongs 0.00118 average fractional NGS count over selection days 2 and 3 (reads of this peptide / all reads for the bait, averaged over …; to chain 1 PQLPHLQRSHPDGQSF [chain 1 P10H], 0.0139 average fractional NGS count over selection days 2 and 3 (reads of this peptide / all reads for the bait, averaged over ….
As for chain 1 PQLPHLQRSKPDGQSF [chain 1 P10K], the screen value was 0.00107 average fractional NGS count over selection days 2 and 3 (reads of this peptide / all reads for the bait, averaged over ….
In the case of chain 1 PQLVHLQRSPPDGQSF [chain 1 P4V], the screen value is 0.000162 average fractional NGS count over selection days 2 and 3 (reads of this peptide / all reads for the bait, averaged over ….
To chain 1 PQLWHLQRSPPDGQSF [chain 1 P4W] belongs 0.000229 average fractional NGS count over selection days 2 and 3 (reads of this peptide / all reads for the bait, averaged over ….
As for chain 1 PQLPHLQRSPPSGQSF [chain 1 D12S], the screen value is 0.000143 average fractional NGS count over selection days 2 and 3 (reads of this peptide / all reads for the bait, averaged over ….
To chain 1 PQLPHLQRSPPAGQSF [chain 1 D12A] belongs 0.000288 average fractional NGS count over selection days 2 and 3 (reads of this peptide / all reads for the bait, averaged over ….
To chain 1 PQLPHLQRSPPMGQSF [chain 1 D12M] belongs 0.000556 average fractional NGS count over selection days 2 and 3 (reads of this peptide / all reads for the bait, averaged over …; to chain 1 PQLPHEQRSPPDGQSF [chain 1 L6E], 0.00197 average fractional NGS count over selection days 2 and 3 (reads of this peptide / all reads for the bait, averaged over ….
With chain 1 PQLPHVQRSPPDGQSF [chain 1 L6V], the screen value was 0.000569 average fractional NGS count over selection days 2 and 3 (reads of this peptide / all reads for the bait, averaged over ….
For the variant chain 1 PQLPHAQRSPPDGQSF [chain 1 L6A], the screen value is 0.00118 average fractional NGS count over selection days 2 and 3 (reads of this peptide / all reads for the bait, averaged over ….
Regarding chain 1 PQLPHDQRSPPDGQSF [chain 1 L6D], the screen value is 0.00436 average fractional NGS count over selection days 2 and 3 (reads of this peptide / all reads for the bait, averaged over ….
The value for chain 1 PQLPHLQRSPADGQSF [chain 1 P11A] was 0.000639 average fractional NGS count over selection days 2 and 3 (reads of this peptide / all reads for the bait, averaged over ….
With chain 1 PQMPHLQRSPPDGQSF [chain 1 L3M], the screen value is 0.000961 average fractional NGS count over selection days 2 and 3 (reads of this peptide / all reads for the bait, averaged over ….
Take chain 1 PQLPYLQRSPPDGQSF [chain 1 H5Y]: the screen value was 0.000149 average fractional NGS count over selection days 2 and 3 (reads of this peptide / all reads for the bait, averaged over ….
For the variant chain 1 PQLPRLQRSPPDGQSF [chain 1 H5R], the screen value is 0.00137 average fractional NGS count over selection days 2 and 3 (reads of this peptide / all reads for the bait, averaged over ….
As for chain 1 PQLPPLQRSPPDGQSF [chain 1 H5P], the screen value was 0.000222 average fractional NGS count over selection days 2 and 3 (reads of this peptide / all reads for the bait, averaged over ….
Turning to chain 1 PQLPTLQRSPPDGQSF [chain 1 H5T], the screen value was 0.000644 average fractional NGS count over selection days 2 and 3 (reads of this peptide / all reads for the bait, averaged over ….
For chain 1 PQLPILQRSPPDGQSF [chain 1 H5I], the screen value is 0.000472 average fractional NGS count over selection days 2 and 3 (reads of this peptide / all reads for the bait, averaged over ….
Turning to chain 1 PQLPHLQRSPPDGQSD [chain 1 F16D], the screen value is 0.000232 average fractional NGS count over selection days 2 and 3 (reads of this peptide / all reads for the bait, averaged over ….
Take chain 1 PQLPHLQRSPPDGQSH [chain 1 F16H]: the screen value is 0.00294 average fractional NGS count over selection days 2 and 3 (reads of this peptide / all reads for the bait, averaged over ….
Consider chain 1 PQLPHLQRSPPDGQSA [chain 1 F16A], for which the screen value is 0.00179 average fractional NGS count over selection days 2 and 3 (reads of this peptide / all reads for the bait, averaged over ….
For chain 1 PQLPHLQRSPPDGQSR [chain 1 F16R], the screen value is 0.00135 average fractional NGS count over selection days 2 and 3 (reads of this peptide / all reads for the bait, averaged over ….
Take chain 1 PQLPHLQRSPPDGQSE [chain 1 F16E]: the screen value was 0.000221 average fractional NGS count over selection days 2 and 3 (reads of this peptide / all reads for the bait, averaged over ….
